Results from patent publication US10421817 (BEIJING MABWORKS BIOTECH, dated 2019).

B1: 18F2-30-VH5VL0 (antibody, human IgG1, kappa, V domains shown)
VH: QVQLVQSGAEVKKPGASVKVSCKASGYTFTSFWLNWVRQRPGQGLEWIGNIYPSTSYTVYNQKFKDRVTLTVDKSTSTAYMELSSLRSEDTAVYYCTRTWRGNSFDYWGQGTTVTVSS
VL: DIVMTQSPDSLAVSLGERATINCKSSQSLLNSGNQKNYVTWYQQKPGQPPKLLIYWGSTRSTGVPDRFSGSGSGTDFTLTISSLQAEDVAVYYCQNDYTYPFTFGQGTKLEIKR
notes: Humanized, human IgG1/kappa constant regions
B2: 18F2-35VH5VL0 (antibody, human IgG1, kappa, V domains shown)
VH: QVQLVQSGAEVKKPGASVKVSCKASGYTFTSFWLNWVRQRPGQGLEWIGNIYPSTSYTIYNQKFKDRVTLTVDKSTSTAYMELSSLRSEDTAVYYCTRTWRGNSFDYWGQGTTVTVSS
VL: DIVMTQSPDSLAVSLGERATINCKSSQSLLNSGNQKNYLTWYQQKPGQPPKLLIYWGSTRVRGVPDRFSGSGSGTDFTLTISSLQAEDVAVYYCQNDYTYPFTFGQGTKLEIKR
notes: as for B1
B3: 18F2-35VH3VL0 (antibody, human IgG1, kappa, V domains shown)
VH: QVQLVQSGAEVKKPGASVKVSCKASGYTFTSFWLNWVRQAPGQGLEWIGNIYPSTSYTIYNQKFKDRVTLTVDTSTSTVYMELSSLRSEDTAVYYCARTWRGNSFDYWGQGTTVTVSS
VL: DIVMTQSPDSLAVSLGERATINCKSSQSLLNSGNQKNYLTWYQQKPGQPPKLLIYWGSTRVRGVPDRFSGSGSGTDFTLTISSLQAEDVAVYYCQNDYTYPFTFGQGTKLEIKR
notes: as for B1
B4: 18F2-30-VH2VL0 (antibody, human IgG1, kappa, V domains shown)
VH: QVQLVQSGAEVKKPGASVKVSCKASGYTFTSFWLNWVRQAPGQGLEWIGNIYPSTSYTVYNQKFKDRVTLTVDKSTSTVYMELSSLRSEDTAVYYCARTWRGNSFDYWGQGTTVTVSS
VL: DIVMTQSPDSLAVSLGERATINCKSSQSLLNSGNQKNYVTWYQQKPGQPPKLLIYWGSTRSTGVPDRFSGSGSGTDFTLTISSLQAEDVAVYYCQNDYTYPFTFGQGTKLEIKR
notes: as for B1
B5: 18F2-5VH6VL2 (antibody, human IgG1, kappa)
heavy: not shown
light: DIVMTQSPSSLTVSLGEKATINCKSNQSLLNSGNQKNYVTWYQQKPGQPPKLLIYWGSTRVRGVPDRFSGSGSGTDFTLTISSLQAEDLAVYYCQNDYTYPFTFGQGTKLEIKRTVAAPSVFIFPPSDEQLKSGTASVVCLLNNFYPREAKVQWKVDNALQSGNSQESVTEQDSKDSTYSLSSTLTLSKADYEKHKVYACEVTHQGLSSPVTKSFNRGEC
notes: as for B1
B6: 18F2-30-VH6VL3 (antibody, human IgG1, kappa)
heavy: not shown
light: DIVMTQSPSSLTVSLGEKATISCKSSQSLLNSGNQKNYVTWYQQKPGQPPKLLIYWGSTRSTGVPDRFSGSGSGTDFTLTISSLQAEDLAVYYCQNDYTYPFTFGSGTKLEIKRTVAAPSVFIFPPSDEQLKSGTASVVCLLNNFYPREAKVQWKVDNALQSGNSQESVTEQDSKDSTYSLSSTLTLSKADYEKHKVYACEVTHQGLSSPVTKSFNRGEC
notes: as for B1
B7: 18F2-5VH7VL3 (antibody, human IgG1, kappa)
heavy: not shown
light: DIVMTQSPSSLTVSLGEKATISCKSNQSLLNSGNQKNYVTWYQQKPGQPPKLLIYWGSTRVRGVPDRFSGSGSGTDFTLTISSLQAEDLAVYYCQNDYTYPFTFGSGTKLEIKRTVAAPSVFIFPPSDEQLKSGTASVVCLLNNFYPREAKVQWKVDNALQSGNSQESVTEQDSKDSTYSLSSTLTLSKADYEKHKVYACEVTHQGLSSPVTKSFNRGEC
notes: as for B1
B8: 18F2-35VH2VL0 (antibody, human IgG1, kappa, V domains shown)
VH: QVQLVQSGAEVKKPGASVKVSCKASGYTFTSFWLNWVRQAPGQGLEWIGNIYPSTSYTIYNQKFKDRVTLTVDKSTSTVYMELSSLRSEDTAVYYCARTWRGNSFDYWGQGTTVTVSS
VL: DIVMTQSPDSLAVSLGERATINCKSSQSLLNSGNQKNYLTWYQQKPGQPPKLLIYWGSTRVRGVPDRFSGSGSGTDFTLTISSLQAEDVAVYYCQNDYTYPFTFGQGTKLEIKR
notes: as for B1
B9: 18F2-35VH6VL0 (antibody, human IgG1, kappa, V domains shown)
VH: QVQLVQSGAEVKKPGASVKVSCKASGYTFTSFWLNWVRQRPGQGLEWIGNIYPSTSYTIYNQKFKDRVTLTVDKSSSTAYMELSSLTSEDTAVYYCTRTWRGNSFDYWGQGTTVTVSS
VL: DIVMTQSPDSLAVSLGERATINCKSSQSLLNSGNQKNYLTWYQQKPGQPPKLLIYWGSTRVRGVPDRFSGSGSGTDFTLTISSLQAEDVAVYYCQNDYTYPFTFGQGTKLEIKR
notes: as for B1
B10: 18F2-35VH4VL0 (antibody, human IgG1, kappa, V domains shown)
VH: QVQLVQSGAEVKKPGASVKVSCKASGYTFTSFWLNWVRQRPGQGLEWIGNIYPSTSYTIYNQKFKDRVTLTVDKSTSTVYMELSSLRSEDTAVYYCARTWRGNSFDYWGQGTTVTVSS
VL: DIVMTQSPDSLAVSLGERATINCKSSQSLLNSGNQKNYLTWYQQKPGQPPKLLIYWGSTRVRGVPDRFSGSGSGTDFTLTISSLQAEDVAVYYCQNDYTYPFTFGQGTKLEIKR
notes: as for B1
B11: 18F2-30-VH6VL0 (antibody, human IgG1, kappa, V domains shown)
VH: QVQLVQSGAEVKKPGASVKVSCKASGYTFTSFWLNWVRQRPGQGLEWIGNIYPSTSYTVYNQKFKDRVTLTVDKSSSTAYMELSSLTSEDTAVYYCTRTWRGNSFDYWGQGTTVTVSS
VL: DIVMTQSPDSLAVSLGERATINCKSSQSLLNSGNQKNYVTWYQQKPGQPPKLLIYWGSTRSTGVPDRFSGSGSGTDFTLTISSLQAEDVAVYYCQNDYTYPFTFGQGTKLEIKR
notes: as for B1
B12: 18F2-5VH7VL2 (antibody, human IgG1, kappa)
heavy: not shown
light: DIVMTQSPSSLTVSLGEKATINCKSNQSLLNSGNQKNYVTWYQQKPGQPPKLLIYWGSTRVRGVPDRFSGSGSGTDFTLTISSLQAEDLAVYYCQNDYTYPFTFGQGTKLEIKRTVAAPSVFIFPPSDEQLKSGTASVVCLLNNFYPREAKVQWKVDNALQSGNSQESVTEQDSKDSTYSLSSTLTLSKADYEKHKVYACEVTHQGLSSPVTKSFNRGEC
notes: as for B1
B13: 18F2-5VH3VL0 (antibody, human IgG1, kappa, V domains shown)
VH: QVQLVQSGAEVKKPGASVKVSCKASGYTFTSFWLNWVRQAPGQGLEWIGNIYPSTSYTVYNQKFKDRVTLTVDTSTSTVYMELSSLRSEDTAVYYCARTWRGNSFDLWGQGTTVTVSS
VL: DIVMTQSPDSLAVSLGERATINCKSNQSLLNSGNQKNYVTWYQQKPGQPPKLLIYWGSTRVRGVPDRFSGSGSGTDFTLTISSLQAEDVAVYYCQNDYTYPFTFGQGTKLEIKR
notes: as for B1
B14: 18F2-30-VH3VL0 (antibody, human IgG1, kappa, V domains shown)
VH: QVQLVQSGAEVKKPGASVKVSCKASGYTFTSFWLNWVRQAPGQGLEWIGNIYPSTSYTVYNQKFKDRVTLTVDTSTSTVYMELSSLRSEDTAVYYCARTWRGNSFDYWGQGTTVTVSS
VL: DIVMTQSPDSLAVSLGERATINCKSSQSLLNSGNQKNYVTWYQQKPGQPPKLLIYWGSTRSTGVPDRFSGSGSGTDFTLTISSLQAEDVAVYYCQNDYTYPFTFGQGTKLEIKR
notes: as for B1
B15: 18F2-5VH5VL0 (antibody, human IgG1, kappa, V domains shown)
VH: QVQLVQSGAEVKKPGASVKVSCKASGYTFTSFWLNWVRQRPGQGLEWIGNIYPSTSYTVYNQKFKDRVTLTVDKSTSTAYMELSSLRSEDTAVYYCTRTWRGNSFDLWGQGTTVTVSS
VL: DIVMTQSPDSLAVSLGERATINCKSNQSLLNSGNQKNYVTWYQQKPGQPPKLLIYWGSTRVRGVPDRFSGSGSGTDFTLTISSLQAEDVAVYYCQNDYTYPFTFGQGTKLEIKR
notes: as for B1
B16: 18F2-30-VH4VL0 (antibody, human IgG1, kappa, V domains shown)
VH: QVQLVQSGAEVKKPGASVKVSCKASGYTFTSFWLNWVRQRPGQGLEWIGNIYPSTSYTVYNQKFKDRVTLTVDKSTSTVYMELSSLRSEDTAVYYCARTWRGNSFDYWGQGTTVTVSS
VL: DIVMTQSPDSLAVSLGERATINCKSSQSLLNSGNQKNYVTWYQQKPGQPPKLLIYWGSTRSTGVPDRFSGSGSGTDFTLTISSLQAEDVAVYYCQNDYTYPFTFGQGTKLEIKR
notes: as for B1
B17: 18F2-5VH4VL0 (antibody, human IgG1, kappa, V domains shown)
VH: QVQLVQSGAEVKKPGASVKVSCKASGYTFTSFWLNWVRQRPGQGLEWIGNIYPSTSYTVYNQKFKDRVTLTVDKSTSTVYMELSSLRSEDTAVYYCARTWRGNSFDLWGQGTTVTVSS
VL: DIVMTQSPDSLAVSLGERATINCKSNQSLLNSGNQKNYVTWYQQKPGQPPKLLIYWGSTRVRGVPDRFSGSGSGTDFTLTISSLQAEDVAVYYCQNDYTYPFTFGQGTKLEIKR
notes: as for B1
B18: 18F2-5VH6VL0 (antibody, human IgG1, kappa, V domains shown)
VH: QVQLVQSGAEVKKPGASVKVSCKASGYTFTSFWLNWVRQRPGQGLEWIGNIYPSTSYTVYNQKFKDRVTLTVDKSSSTAYMELSSLTSEDTAVYYCTRTWRGNSFDLWGQGTTVTVSS
VL: DIVMTQSPDSLAVSLGERATINCKSNQSLLNSGNQKNYVTWYQQKPGQPPKLLIYWGSTRVRGVPDRFSGSGSGTDFTLTISSLQAEDVAVYYCQNDYTYPFTFGQGTKLEIKR
notes: as for B1
B19: 18F2-5VH0VL0 (antibody, human IgG1, kappa, V domains shown)
VH: QVQLVQSGAEVKKPGASVKVSCKASGYTFTSFWLNWVRQAPGQGLEWMGNIYPSTSYTVYNQKFKDRVTMTRDTSTSTVYMELSSLRSEDTAVYYCARTWRGNSFDLWGQGTTVTVSS
VL: DIVMTQSPDSLAVSLGERATINCKSNQSLLNSGNQKNYVTWYQQKPGQPPKLLIYWGSTRVRGVPDRFSGSGSGTDFTLTISSLQAEDVAVYYCQNDYTYPFTFGQGTKLEIKR
notes: Humanized, human IgG1/kappa constant regions; also called 18F2-SVH0VL0
B20: 18F2-5VH6VL3 (antibody, human IgG1, kappa)
heavy: not shown
light: DIVMTQSPSSLTVSLGEKATISCKSNQSLLNSGNQKNYVTWYQQKPGQPPKLLIYWGSTRVRGVPDRFSGSGSGTDFTLTISSLQAEDLAVYYCQNDYTYPFTFGSGTKLEIKRTVAAPSVFIFPPSDEQLKSGTASVVCLLNNFYPREAKVQWKVDNALQSGNSQESVTEQDSKDSTYSLSSTLTLSKADYEKHKVYACEVTHQGLSSPVTKSFNRGEC
notes: as for B1
B21: 18F2-30-VH7VL0 (antibody, human IgG1, kappa, V domains shown)
VH: QVQLVQSGAEVKKPGASVKVSCKASGYTFTSFWLNWVKQRPGQGLEWIGNIYPSTSYTVYNQKFKDKVTLTVDKSTSTAYMELSSLRSEDTAVYYCTRTWRGNSFDYWGQGTTVTVSS
VL: DIVMTQSPDSLAVSLGERATINCKSSQSLLNSGNQKNYVTWYQQKPGQPPKLLIYWGSTRSTGVPDRFSGSGSGTDFTLTISSLQAEDVAVYYCQNDYTYPFTFGQGTKLEIKR
notes: as for B1

Target: T1, human Claudin 18.1 (human, UniProt P56856 1-261)
T1 construct: Overexpressed on HEK293A cells by lentivirus
T1 sequence (P56856 whole entry): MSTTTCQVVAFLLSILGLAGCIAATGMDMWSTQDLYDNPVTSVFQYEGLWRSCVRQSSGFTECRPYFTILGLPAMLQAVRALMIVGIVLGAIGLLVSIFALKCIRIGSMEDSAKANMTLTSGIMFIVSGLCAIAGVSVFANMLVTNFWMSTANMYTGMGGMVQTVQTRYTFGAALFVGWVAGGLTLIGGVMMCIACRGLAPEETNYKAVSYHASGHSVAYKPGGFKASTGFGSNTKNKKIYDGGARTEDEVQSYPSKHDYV
Experiment: FACS on HEK293A/hClaudin 18.1 cells

Binding result, no binding:
B1
B2
B3
B4
B5
B6
B7
B8
B9
B10
B11
B12
B13
B14
B15
B16
B17
B18
B19
B20
B21
